Results published in patent US20050227296A1, “Method for indentifying integrin antagonists” (The General Hospital Corporation, a Massachusetts …, priority 1988, published 2005).

Key:
[1] = target: CR3 (CD11b/CD18) expressed by normal human neutrophils (Homo sapiens, UniProt P11215); experiment: EAiC3b binding to adherent neutrophils (CR3); type: cell-based
Description: Purification and adherence of human neutrophils: Neutrophils were purified as described by Boyum et al. (Scand. J. Clin. Lab. Med. 97(suppl.):77, 1968), resuspended in divalent-cation-free Tris-HCl-saline buffer, pH 7.4 at 5×10^7/ml and kept on ice until used. Neutrophils (2×10^5 cells/well) were allowed to adhere to 96-well plates in Iscov's Modified Medium for one hour at 37° C., in a humidified incubator with 5% CO2. The wells were then washed, and […] of fluoresceinated EAiC3b or EA (at 1.5×10^8/ml) were added in the presence of 3% BSA, in a total volume of […], followed by 15 min incubation at 37° C. with 5% CO2. Wells were then washed and fluorescence quantified as described above.
The ability of A7 to inhibit EAiC3b binding to CR3 (CD11b/CD18) expressed by normal human neutrophils was measured under conditions similar to those used in assessing EAiC3b binding to rA-domain. EAiC3b binding to neutrophils is primarily mediated by CR3, but can also occur in vitro through complement receptor type 1 (CR1). The effect of A7 on EAiC3b binding was tested in nearly isotonic conditions and in the presence of blocking concentrations of a polyclonal anti-CR1 antibody (Ross et al., J. Exp. Med. 158:334, 1983). […] These findings indicate that A7 is the major site in CR3 responsible for its interaction with iC3b.

fibrinogen = target: T1, fibrinogen (Homo sapiens, UniProt P02671+P02675+P02679); experiment: A domain binding to fibrinogen
T1 sequence (P02671 20-629 limits assumed): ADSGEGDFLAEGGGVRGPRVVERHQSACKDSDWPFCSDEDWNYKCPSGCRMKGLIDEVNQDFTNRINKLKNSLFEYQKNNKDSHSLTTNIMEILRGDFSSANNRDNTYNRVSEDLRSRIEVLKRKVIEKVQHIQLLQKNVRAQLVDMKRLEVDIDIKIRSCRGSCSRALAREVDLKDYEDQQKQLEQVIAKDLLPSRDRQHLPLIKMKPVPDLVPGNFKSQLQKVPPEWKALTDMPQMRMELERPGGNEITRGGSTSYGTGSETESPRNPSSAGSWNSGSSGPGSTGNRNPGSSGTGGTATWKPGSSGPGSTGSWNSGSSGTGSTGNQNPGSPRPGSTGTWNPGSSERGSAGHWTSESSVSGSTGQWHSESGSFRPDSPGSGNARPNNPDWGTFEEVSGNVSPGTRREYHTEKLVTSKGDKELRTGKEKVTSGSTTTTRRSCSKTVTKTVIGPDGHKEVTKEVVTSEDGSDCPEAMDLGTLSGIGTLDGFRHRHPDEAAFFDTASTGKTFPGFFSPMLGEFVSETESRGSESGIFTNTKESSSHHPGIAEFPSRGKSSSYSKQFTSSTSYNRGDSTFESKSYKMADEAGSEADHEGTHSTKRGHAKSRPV
T1 sequence (P02675 31-491): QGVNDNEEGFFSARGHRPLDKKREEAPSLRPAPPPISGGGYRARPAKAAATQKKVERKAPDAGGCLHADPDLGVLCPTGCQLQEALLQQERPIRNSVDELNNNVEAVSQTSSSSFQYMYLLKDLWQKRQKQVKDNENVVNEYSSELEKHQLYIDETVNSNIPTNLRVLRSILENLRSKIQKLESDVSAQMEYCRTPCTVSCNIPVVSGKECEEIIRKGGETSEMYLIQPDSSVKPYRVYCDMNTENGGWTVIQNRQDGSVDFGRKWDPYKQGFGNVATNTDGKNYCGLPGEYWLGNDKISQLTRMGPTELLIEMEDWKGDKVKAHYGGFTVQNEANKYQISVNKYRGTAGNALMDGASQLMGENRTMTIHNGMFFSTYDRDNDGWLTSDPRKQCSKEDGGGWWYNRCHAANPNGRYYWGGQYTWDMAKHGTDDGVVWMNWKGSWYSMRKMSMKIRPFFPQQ
T1 sequence (P02679 27-453): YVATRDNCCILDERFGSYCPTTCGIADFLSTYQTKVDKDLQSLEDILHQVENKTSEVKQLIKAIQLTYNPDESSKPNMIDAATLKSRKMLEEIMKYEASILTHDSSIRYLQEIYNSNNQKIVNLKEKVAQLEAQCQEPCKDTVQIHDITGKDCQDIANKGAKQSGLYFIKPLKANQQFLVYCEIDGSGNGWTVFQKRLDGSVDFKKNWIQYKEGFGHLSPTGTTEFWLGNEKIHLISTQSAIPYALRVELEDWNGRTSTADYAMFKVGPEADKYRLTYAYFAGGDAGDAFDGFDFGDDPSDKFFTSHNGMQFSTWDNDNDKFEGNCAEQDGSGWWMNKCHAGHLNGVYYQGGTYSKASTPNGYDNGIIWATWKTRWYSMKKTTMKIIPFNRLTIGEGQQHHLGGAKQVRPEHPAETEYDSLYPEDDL

## r11bA: recombinant human CD11b A domain (Cys128 to Glu321), expressed as GST fusion protein, used as such or after thrombin cleavage
[1]
  concentrations required for inhibition of iC3b binding to leukocytes: micromolar concentrations
fibrinogen
  binding of the A domain to fibrinogen: binds
